B1: CCL28 (ligand)
chain: SEAILPIASSCCTEVSHHISRRLLERVNMCRIQRADGDCDLAAVILHVKRRRICVSPHNHTVKQWMKVQAAKKNGKGNVCHRKKHHGKRNSNRAHQGKHETYGHKTPY
notes: recombinant human CCL28; source: bought: PeproTech
B2: CXCL11 (ligand)
chain: FPMFKRGRCLCIGPGVKAVKVADIEKASIMYPSNNCDKIEVIITLKENKGQRCLNPKSKQARLIIKKVERKNF
notes: recombinant human CXCL11; source: bought: PeproTech
B3: CCL5 (ligand)
chain: SPYSSDTTPCCFAYIARPLPRAHIKEYFYTSGKCSNPAVVFVTRKNRQVCANPEKKWVREYINSLEMS
notes: recombinant human CCL5; source: bought: PeproTech
B4: IL-27 (complex)
chain 1: FPRPPGRPQLSLQELRREFTVSLHLARKLLSEVRGQAHRFAESHLPGVNLYLLPLGEQLPDVSLTFQAWRRLSDPERLCFISTTLQPFHALLGGLGTQGRWTNMERMQLWAMRLDLRDLQRHLRFQVLAAGFNLPEEEEEEEEEEEEERKGLLPGALGSALQGPAQVSWPQLLSTYRLLHSLELVLSRAVRELLLLSKAGHSVWPLGFPTLSPQP
chain 2: RKGPPAALTLPRVQCRASRYPIAVDCSWTLPPAPNSTSPVSFIATYRLGMAARGHSWPCLQQTPTSTSCTITDVQLFSMAPYVLNVTAVHPWGSSSSFVPFITEHIIKPDPPEGVRLSPLAERQLQVQWEPPGSWPFPEIFSLKYWIRYKRQGAARFHRVGPIEATSFILRAVRPRARYYVQVAAQDLTDYGELSDWSLPATATMSLGK
notes: source: bought: PeproTech
B5: CCL21 (ligand)
chain: SDGGAQDCCLKYSQRKIPAKVVRSYRKQEPSLGCSIPAILFLPRKRSQAELCADPKELWVQQLMQHLDKTPSPQKPAQGCRKDRGASKTGKKGKGSKGCKRTERSQTPKGP
notes: recombinant human CCL21; source: bought: PeproTech
B6: CXCL13 (ligand)
chain: VLEVYYTSLRCRCVQESSVFIPRRFIDRIQILPRGNGCPRKEIIVWKKNKSIVCVDPQAEWIQRMMEVLRKRSSSTLPVPVFKRKIP
notes: recombinant human CXCL13; source: bought: PeproTech
B7: CCL13 (ligand)
chain: not shown
notes: recombinant human CCL13; source: bought: PeproTech
B8: CCL25 (ligand)
chain: QGVFEDCCLAYHYPIGWAVLRRAWTYRIQEVSGSCNLPAAIFYLPKRHRKVCGNPKSREVQRAMKLLDARNKVFAKLHHNTQTFQAGPHAVKKLSSGNSKLSSSKFSNPISSSKRNVSLLISANSGL
notes: recombinant human CCL25; source: bought: PeproTech
B9: CCL26 (ligand)
chain: TRGSDISKTCCFQYSHKPLPWTWVRSYEFTSNSCSQRAVIFTTKRGKKVCTHPRKKWVQKYISLLKTPKQL
notes: recombinant human CCL26; source: bought: PeproTech
B10: CXCL9 (ligand)
chain: TPVVRKGRCSCISTNQGTIHLQSLKDLKQFAPSPSCEKIEIIATLKNGVQTCLNPDSADVKELIKKWEKQVSQKKKQKNGKKHQKKKVLKVRKSQRSRQKKTT
notes: recombinant human CXCL9; source: bought: PeproTech
B11: CXCL14 (ligand)
chain: SKCKCSRKGPKIRYSDVKKLEMKPKYPHCEEKMVIITTKSVSRYRGQEHCLHPKLQSTKRFIKWYNAWNEKRRVYEE
notes: recombinant human CXCL14; source: bought: PeproTech
B12: HCoV-OC43 Nucleocapsid (N) protein (2X-StrepTag tagged) (natural protein)
chain: MSFTPGKQSSSRASSGNRSGNGILKWADQSDQVRNVQTRGRRAQPKQTATSQQPSGGNVVPYYSWFSGITQFQKGKEFEFVEGQGPPIAPGVPATEAKGYWYRHNRGSFKTADGNQRQLLPRWYFYYLGTGPHAKDQYGTDIDGVYWVASNQADVNTPADIVDRDPSSDEAIPTRFPPGTVLPQGYYIEGSGRSAPNSRSTSRTSSRASSAGSRSRANSGNRTPTSGVTPDMADQIASLVLAKLGKDATKPQQVTKHTAKEVRQKILNKPRQKRSPNKQCTVQQCFGKRGPNQNFGGGEMLKLGTSDPQFPILAELAPTAGAFFFGSRLELAKVQNLSGNPDEPQKDVYELRYNGAIRFDSTLSGFETIMKVLNENLNAYQQQDGMMNMSPKPQRQRGHKNGQGENDNISVAVPKSRVQQNKSRELTAEDISLLKKMDEPYTEDTSEI
notes: also called rN; HCoV-OC43 rN; source: HEK293-FT, transfected, in crude lysate; not shown: 2X-StrepTag, C-terminal, kept
B13: CCL11 (ligand)
chain: not shown
notes: recombinant human CCL11; source: bought: PeproTech

Legend:
[1] = target: B12; experiment: BLI; details: one partner purified
CXCL12α = target: T1, CXCL12α (human, UniProt P48061-2 22-89); experiment: BLI; details: one partner purified
T1 construct: source: bought: PeproTech
T1 sequence (P48061 22-89): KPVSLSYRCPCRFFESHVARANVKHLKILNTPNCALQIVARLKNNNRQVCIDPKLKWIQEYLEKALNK

| Binder | Kd [1] [nM] | koff [1] [s⁻¹] | kon [1] [M⁻¹ s⁻¹] | Kd (CXCL12α) [nM] | koff (CXCL12α) [s⁻¹] | kon (CXCL12α) [M⁻¹ s⁻¹] |
| --- | --- | --- | --- | --- | --- | --- |
| B1 | 27 | 0.0015 | 60000 |  |  |  |
| B2 | 730 | 0.012 | 18000 |  |  |  |
| B3 | 56000 | 0.015 | 2100 |  |  |  |
| B4 | 55 | 0.0024 | 51000 |  |  |  |
| B5 | 290 | 0.012 | 67000 |  |  |  |
| B6 | 140 | 0.0046 | 44000 |  |  |  |
| B7 | 1600 | 0.025 | 19000 |  |  |  |
| B8 | 610 | 0.0048 | 8300 |  |  |  |
| B9 | 620 | 0.014 | 20000 |  |  |  |
| B10 | 29 | 0.0022 | 82000 |  |  |  |
| B11 | 580 | 0.0063 | 12000 |  |  |  |
| B12 |  |  |  | 0.46 | 3.7e-05 | 62000 |
| B13 | 1400 | 0.021 | 17000 |  |  |  |

Reference: paper doi:10.1101/2023.02.24.529952 (bioRxiv, 2023)
